From PMC11231238, “SPRING licenses S1P-mediated cleavage of SREBP2 by displacing an inhibitory pro-domain” (Nature Communications, 2024)

Molecular target: T1, FLAG-S1P_(ecto)-His10, matured C-form (human, UniProt Q14703 187-998)
T1 construct: human S1P (MBTPS1); expressed as IgK leader-FLAG-residues 23-998-His10; after autoproteolysis the His10-bearing C-form; The N-terminal FLAG tag leaves with the A-domain; also called WT S1P_(ecto); C-form of S1P_(ecto); source: HEK 293S GnTI- (BacMam baculovirus), secreted, purified (NiNTA, gel filtration); HEK 293T, transfected, secreted, in supernatant; not shown: His10, C-terminal, kept
T1 sequence (looked up): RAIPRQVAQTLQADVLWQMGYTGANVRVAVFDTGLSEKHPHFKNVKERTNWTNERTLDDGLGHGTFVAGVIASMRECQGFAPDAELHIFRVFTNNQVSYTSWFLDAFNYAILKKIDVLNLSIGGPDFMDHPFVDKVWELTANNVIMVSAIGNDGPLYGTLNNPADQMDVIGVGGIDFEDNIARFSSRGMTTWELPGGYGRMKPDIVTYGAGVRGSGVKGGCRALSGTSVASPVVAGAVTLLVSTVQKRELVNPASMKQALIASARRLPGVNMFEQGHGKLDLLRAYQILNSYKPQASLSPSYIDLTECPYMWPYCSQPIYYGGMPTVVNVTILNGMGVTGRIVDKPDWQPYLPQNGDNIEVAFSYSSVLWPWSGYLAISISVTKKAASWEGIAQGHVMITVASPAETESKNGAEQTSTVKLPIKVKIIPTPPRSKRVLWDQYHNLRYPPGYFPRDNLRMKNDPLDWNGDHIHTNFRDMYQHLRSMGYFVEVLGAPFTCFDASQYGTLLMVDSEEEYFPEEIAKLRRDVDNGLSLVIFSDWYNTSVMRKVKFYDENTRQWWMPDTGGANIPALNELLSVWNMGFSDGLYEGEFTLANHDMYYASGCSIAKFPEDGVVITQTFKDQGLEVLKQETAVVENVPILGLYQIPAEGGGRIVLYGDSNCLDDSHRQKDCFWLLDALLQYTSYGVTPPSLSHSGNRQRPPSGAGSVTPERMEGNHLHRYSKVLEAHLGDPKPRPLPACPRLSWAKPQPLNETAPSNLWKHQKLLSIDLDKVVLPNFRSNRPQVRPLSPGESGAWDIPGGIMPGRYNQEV
Experiment: pull-down; HEK 293T supernatants of co-transfected cells with 50 mM imidazole; NiNTA resin holds the His10 tag of S1P_(ecto), 1-2 h at 4 °C; washes in 150 mM NaCl, 50 mM HEPES-NaOH pH 7.5, 50 mM imidazole; elution with 300 mM imidazole; immunoblot anti-HA, anti-His, anti-FLAG
Conditions: partners not purified

B1: cleaved A-domain of FLAG-S1P_(ecto)-His10 (domain or fragment, human, UniProt Q14703 23-137, looked up)
chain: DRLEKKSFEKAPCPGCSHLTLKVEFSSTVVEYEYIVAFNGYFTAKARNSFISSALKSSEVDNWRIIPRNNPSSDYPSDFEVIQIKEKQKAGLLTLEDHPNIKRVTPQRKVFRSLK
notes: human S1P (MBTPS1) A pro-domain, released by autoproteolysis from the construct FLAG-residues 23-998-His10; the construct begins at residue 23; in the cryo-EM map the density ends after K137 (cleavage at the B site); cleavage at the alternative B' site is possible too; also called A pro-domain; S1P A-domain; source: HEK 293S GnTI- (BacMam baculovirus), secreted, co-purified with S1P_(ecto) …
- binding result: binds
